Test results published in the RNAGym collection of RNA variant scans (doi:10.1073/pnas.2313332121).

B1: TPR t1 (parent)
chain: GACCAAUCUGCCCUCAGAGCUCGAGAACAUCUUCGGAUGCAGAGGAGGCAGGCUUCGGUGGCGCGAUAGCGCCAACGUCCUCAACCUCCAAUGCAUCCCACCACAUGAUGAUGCCUGAAGAGCCUUGGUUUUUUG

Variants of: B1
Test: polymerase ribozyme fitness, log enrichment relative to wild type (log ratio); higher = more active; in vitro selection for triplet polymerase activity
Outline: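 Frozen incubation at −7 °C formed the core of a single, triplicate in vitro selection round applied to PCR-built, transcribed mutant libraries of each subunit of a heterodimeric triplet polymerase ribozyme. Extended constructs were gel-excised, captured with streptavidin beads and amplified by RT-PCR, and input and output libraries were Illumina-sequenced with a filter of ≥10 input reads and ≥1 read per output. Fitness is the logarithm of genotype enrichment relative to wild-type enrichment, with inverse-variance-weighted replicate averaging, and the logarithm is base 2.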

**Q.** For GACCAAUCUGCCCUCAGAGCUCGAGAACAUCUUCGGAUGCAGAGGAGGAAGGCUUCGGUGGCGCGAUAGCGCCAACGUCCUAAACCUCCAAUGCAUCCCACCACAUGAUGAUGCCUGAAGAGCCUUGGUUUUUUG, which “polymerase ribozyme fitness (log ratio)” value is on record?
**A.** Its value is -1.17.

**Q.** With GACCAAUCUGCCCUCAGAGCUCGAGAACAUCUUCGGAUGCAGAGGAGGAAGGCUUCGGUGGCGCGAUAGCGCAAACGUCCUCAACCUUCAUUGCAUCCCACCACAUGAUGAUGCCUGAAGAGCUUUGGUUUUUUG as the variant, how does the “polymerase ribozyme fitness (log ratio)” value read?
**A.** Its value is -0.744.

**Q.** Which “polymerase ribozyme fitness (log ratio)” value does the source give for GACCAAUCUGCCCUCAGAGCUCGAGAACAUCUUCGGAUGCAGAGGAGGAAGCCUUCGGUAGCGCGAUAGCGCCAACGUCCUCAACCUCCAAUGCAUCCCACCACAUGAUGAGGCCUGAAGAGCCUUCGUUUUUUG here?
**A.** The value was -2.8.

**Q.** With GACCAAUCUGCCCUCAGAGCUCGAGAACAUCUUCGGAUGCAGAGGAGGAAGGCUUCAGUGGCGCGAUAGCGCCAACGUCCUCAACCUCCAAUGCAUCCCACCACAUGAUCAUGCCUGAAGAGCCUUGGUUUUUUG as the variant, how does the “polymerase ribozyme fitness (log ratio)” value read?
**A.** Its value is -6.31.

**Q.** With GACCAAUCUGCCCUCAGAGCUCGAGAACAUCUUCGGAUGCAGAGGAGGAAGUCUUCGGUGGCGCGAUAGCCCCAACGUCCUCAACCUCCAAUGCAUCCCACCACAUGAUGAUGCCUGAAGAGCCUUGGUUUUUUG as the variant, how does the “polymerase ribozyme fitness (log ratio)” value read?
**A.** The value was -1.75.

**Q.** Which “polymerase ribozyme fitness (log ratio)” value does the source give for GACCAAUCUGCCCUCAGAGCUCGAGAACAUCUUCGGAUGCAGAGGAGGAAGGCUUCGGUGGCGCGAUAUCGCCAACGUCCACAACCUCAAAUUCAUCCCACCACAUGAUGAUGCGUGAAGAGGCUUGGUUUUUUG here?
**A.** The value was -2.93.

**Q.** Which “polymerase ribozyme fitness (log ratio)” value does the source give for GACCAAUCUGCCCUCAGAGCUCGAGAACAUCUUCGGAUGCAGAGGAGGAAGGCUUCGGUGGCGCGAUAGCGUCAACGUCCUCAACCUCCAAUGCAUCCCACCACAUGACGAAGCCUGAAGCGCCUUGGUUUUUUG here?
**A.** Its value is -6.03.

**Q.** With GACCAAUCUGCCCUCAGAGCUCGAGAACAUCUUCGGAUGCAGAGGAGGAAGGCUUCGGUGGCGCGCUAGCGCCAACGUCCUCAACCACCAAUGCAUCCCACCACAUGAUGAUGCCUGAAGAGCCUUGGUUUUUUG as the variant, how does the “polymerase ribozyme fitness (log ratio)” value read?
**A.** The value was -1.04.

**Q.** With GACCAAUCUGCCCUCAGAGCUCGAGAACAUCUUCGGAUGCAGAGGAGGAAGGCUUCGGUGACGCGAUAGCGCCAACGUCCUCAACCUCCAAUGCAUCCCACCACAUGAUGAUGCCUGAAGAGCCUUCGUUUUUUC as the variant, how does the “polymerase ribozyme fitness (log ratio)” value read?
**A.** The value was -0.458.

**Q.** Which “polymerase ribozyme fitness (log ratio)” value does the source give for GACCAAUCUGCCCUCAGAGCUCGAGAACAUCUUCGGAUGCAGAGGAGGAAGGCUUCGGUGGCGCGAUAGCGCCAACGUCCUCAACCUCCCAUGCAUCCCACCACAUGAUGAUGCCUGAAGAGCCUUGGUUUUUUG here?
**A.** Its value is -1.35.

**Q.** With GACCAAUCUGCCCUCAGAGCUCGAGAACAUCUUCGGAUGCAGAGGAGGAAGGCUUCGGUGGCGCGAUAGCGCCAACGUCCUCAACCUCCUAUGCAUCCCACCACAUGAUGAUGCCUGAAGAGCCUUGGUUUUUUG as the variant, how does the “polymerase ribozyme fitness (log ratio)” value read?
**A.** The value was -0.956.

**Q.** Which “polymerase ribozyme fitness (log ratio)” value does the source give for GACCAAUCUGCCCUCAGAGCUCGAGAACAUCUUCGGAUGCAGAGGAGGAAGGCUUCGGUGGCGCGAUAGCGCCAACGUCCUCAACCUCCAAUGUAUCCCACCACAUGAUGAUGCCUGAAGAGCCUUGGUUUUUUG here?
**A.** Its value is 0.159.

**Q.** With GACCAAUCUGCCCUCAGAGCUCGAGAACAUCUUCGGAUGCAGAGGAGGAAGGCUUCGGUGGCGCGAUAGCGCAAACGUCCUCAACCUCCAAUUCAUCCCACCACAUGAUGAUGCCUGAAGAGCCUUGGUUUUUUG as the variant, how does the “polymerase ribozyme fitness (log ratio)” value read?
**A.** Its value is -1.28.

**Q.** Which “polymerase ribozyme fitness (log ratio)” value does the source give for GACCAAUCUGCCCUCAGAGCUCGAGAACAUCUUCGGAUGCAGAGGAGGAAGGCUUCGGUGGCGCGAUAGCGCCAACGUCCUCCACCUCCAAUGCAUCCCACCACAUGAUGAUGCCUGAAGAGCCUUGGUUUUUUG here?
**A.** Its value is -1.24.

**Q.** With GACCAAUCUGCCCUCAGAGCUCGAGAACAUCUUCGGAUGCAGAGGAGGAAGGCUUCGGUGGCGCGAUAGCGCCAACGUGCUCAACCUCCAAUGCAUCCCACCGCAUGAUGAGGUCCGAAGAGCCUUGGUUUUUUG as the variant, how does the “polymerase ribozyme fitness (log ratio)” value read?
**A.** Its value is -7.2.

**Q.** Which “polymerase ribozyme fitness (log ratio)” value does the source give for GACCAAUCUGCCCUCAGAGCUCGAGAACAUCUUCGGAUGCAGAGGAGGAAGGCUUCGGUGGCGCGAUAGCGCCAACGUCCUCAACCUCCACUGCAUCCCACCACAUGAUGAUGCCUGAAGAGCCUUAGUUUUUUG here?
**A.** Its value is -3.35.

**Q.** Which “polymerase ribozyme fitness (log ratio)” value does the source give for GACCAAUCUGCCCUCAGAGCUCGAGAACAUCUUCGGAUGCAGAGGAGGACGGCUUCGGUGGCGCGAUAGCGCCAACGUCCUCAACCUCCAAUGCAUCCCACCACAUGAUGAUGCCUGAAGAGCCUUGGUUUUUUG here?
**A.** The value was -0.838.

**Q.** For GACCAAUCUGCCCUCAGAGCUCGAGAACAUCUUCGGAUGCAGAGGAGGAAGGCUUCGGUGGCGUGAUAGCGCCAACGUCCUCAACCUCCAAUGCAUCCCACCACAUGAUGAUGCCUGAAGAGCCUUGGCUUUCUG, which “polymerase ribozyme fitness (log ratio)” value is on record?
**A.** Its value is -0.175.

**Q.** With GACCAAUCUGCCCUCAGAGCUCGAGAACAUCUUCGGAUGCAGAGGAGGAAGGCUUCGGUGGCGCGAUAGCUCCAACGACCUCAACCUCCAAUGCAUCCCACCACAUGAUGAUGCCUGAACAGCCUUGGUUUUUUG as the variant, how does the “polymerase ribozyme fitness (log ratio)” value read?
**A.** The value was 0.393.

**Q.** With GACCAAUCUGCCCUCAGAGCUCGAGAACAUCUUCGGAUGCAGAGGAGGAAGCCUUCGGUGGCGCGAUAGCGCCAACGUCCUCAACCUCCAAUGCACCCCACCACAUGAUGAUGCCUGAAGAGCCUUGGUUUUUUG as the variant, how does the “polymerase ribozyme fitness (log ratio)” value read?
**A.** Its value is -0.622.

**Q.** Which “polymerase ribozyme fitness (log ratio)” value does the source give for GACCAAUCUGCCCUCAGAGCUCGAGAACAUCUUCGGAUGCAGAGGAGUCAGGCUUCGGUGGCGCGAUAGCGCCAACGUCCUCAACCUCCAAUGCACCCCACCACAUGAUGAUGCCAGAAGUGCCUUGGUUUUUUG here?
**A.** The value was -1.06.
